Results published in publication PMC5906591.

Target: HigA2Ab-His antitoxin (C-terminal His-tag fusion, from pET-HigBA-His) (Acinetobacter baumannii)
Test: SEC

Work on “HigB2Ab toxin, untagged (co-expressed from pET-HigBA-His or pET-HigB-His6-TEV-HigA)” yielded a stoichiometry N (toxin:antitoxin) of 1.
